Measurements: US20220227882A1 (TRUSTEES OF TUFTS COLLEGE, published 2022)
Positions count from the first letter of the chain named.

What was measured:
R482A = molecular target: T1, R482A (Homo sapiens, UniProt P78325); test: high-throughput flow cytometry, HEK293 cells with mutant ADAM8, high stringency; range in parentheses
T1 construct: expressed on HEK293 cells; also called human ADAM8 point mutant R482A
T1 sequence (ADAM8, looked up): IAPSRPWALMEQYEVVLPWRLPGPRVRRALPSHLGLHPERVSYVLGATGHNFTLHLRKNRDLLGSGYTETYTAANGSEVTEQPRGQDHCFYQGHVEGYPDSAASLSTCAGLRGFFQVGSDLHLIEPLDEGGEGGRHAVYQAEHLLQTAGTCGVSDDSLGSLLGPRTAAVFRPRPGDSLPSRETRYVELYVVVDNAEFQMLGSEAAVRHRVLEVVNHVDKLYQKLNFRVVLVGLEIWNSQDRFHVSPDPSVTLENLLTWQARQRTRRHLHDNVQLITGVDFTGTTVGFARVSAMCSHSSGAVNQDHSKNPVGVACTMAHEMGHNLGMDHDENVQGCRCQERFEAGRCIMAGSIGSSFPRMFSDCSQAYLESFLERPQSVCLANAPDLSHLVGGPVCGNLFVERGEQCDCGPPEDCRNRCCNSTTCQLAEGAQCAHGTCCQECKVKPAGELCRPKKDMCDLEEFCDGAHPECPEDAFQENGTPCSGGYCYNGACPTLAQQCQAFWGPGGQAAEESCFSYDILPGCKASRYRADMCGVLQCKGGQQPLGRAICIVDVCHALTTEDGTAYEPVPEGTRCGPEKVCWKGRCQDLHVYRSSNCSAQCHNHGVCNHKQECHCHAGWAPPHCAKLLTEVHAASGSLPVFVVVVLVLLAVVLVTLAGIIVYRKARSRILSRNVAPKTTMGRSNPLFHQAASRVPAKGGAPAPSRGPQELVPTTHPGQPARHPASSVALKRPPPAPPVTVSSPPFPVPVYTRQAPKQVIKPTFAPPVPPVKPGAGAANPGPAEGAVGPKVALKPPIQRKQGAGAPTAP
Protocol: (§1) A variety of experimental parameters were optimized for high-throughput flow cytometry including blocking buffer, and primary and secondary antibody concentrations, to identify the optimal conditions for screening. Through these studies ADP2 and ADP13 were determined to be high affinity binding antibodies.
(§2) Thus, for these studies antigen-binding fragments (Fabs) of ADP2 and ADP13, which bind with lower affinity than the full antibody, were generated. In addition, higher binding stringency conditions were tested, such as increased pH, salinity, and temperature, and/or increased washing, to weaken binding sufficiently to allow identification of critical binding residues in flow cytometry. The final experimental flow cytometry conditions were: primary antibody incubation with ADP2 Fab (0.50 μg/ml), ADP13 Fab (5.00 μg/ml) and Control Ab (0.16 μg/ml) for 60 minutes in flow cytometry buffer containing 10% goat serum in PBS (Ca²⁺ and Mg²⁺ free). […] Samples were washed three times after primary antibody incubation and twice after secondary antibody incubation with PBS (Ca²⁺ and Mg′ free). Next, HEK293 cells expressing WT or mutated ADAM8 proteins or EV DNA were incubated with ADP2 or ADP13 Fabs or Control Ab at their optimal concentrations. Fab binding was detected using Alexa Fluor 488-conjugated secondary antibodies and mean cellular fluorescence determined using the Intellicyt iQue flow cytometry platform. […] This counter-screen strategy facilitates the exclusion of mutants that are locally misfolded or that have an expression defect. Binding of each test Fab to each mutant clone in the alanine scanning library was determined, in duplicate, by high-throughput flow cytometry.

V459A = molecular target: T2, V459A (Homo sapiens, UniProt P78325); test: as above
T2 construct: expressed on HEK293 cells; also called human ADAM8 point mutant V459A
T2 sequence (ADAM8, looked up): T1 sequence (ADAM8, looked up) with V443A, A466R
Protocol: as §1, §2

Binding Reactivity (% WT) (R482A): 113 % WT | Binding Reactivity (% WT) (V459A): 55.6 % WT
B1: ADP2 Fab (Fab, V domains shown)
VH: EVKLVESGGGLVQPGGSLSLSCAASGFSFPDYYMSWVRQPPGKALEWLGFIRDSANGYTTEYIASVKGRFTFSRDNSQSILYLQMNALRAEDSATYYCARYSRYYGMDYWGQGTSVTVSS
VL: SIVMTQTPKILLVSAGDRVTITCKASQTVNYDVAWYQQKPGQSPKPVIYFASNRYTGVPDRFTGSGFGTDFTFTISTVQAEDLAVYFCQQDYSAPWTFGGGTKLEIK
